Positions count from the first letter of the chain named.

The values below come from US20210079088A1 (published 2021).

T1: soluble human IL-4Rα (sIL-4Rα; PEPRO TECH, Catalog Number: 200-04R) (human, UniProt P24394 26-232)
T1 construct: Bought protein; also called shIL-4Rα; soluble hIL-4 Rα
T1 sequence: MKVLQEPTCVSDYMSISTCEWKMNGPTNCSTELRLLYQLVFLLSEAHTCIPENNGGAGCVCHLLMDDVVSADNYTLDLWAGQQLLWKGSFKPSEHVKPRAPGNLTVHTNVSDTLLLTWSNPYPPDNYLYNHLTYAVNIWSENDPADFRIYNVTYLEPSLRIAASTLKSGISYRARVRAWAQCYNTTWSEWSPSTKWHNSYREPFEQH

B1: L1001H1000 (antibody, V domains shown)
VH: EVQLVQSGGGLVHPGGSLRLSCAGSGFTFSRNAMFWVRQAPGKGLEWVSGIGTGGATNYADSVKGRFTISRDNAKNSLYLQMNSLRAEDMAVYYCARGRYYFDYWGQGTLVTVSS
VL: EIVLTQSPGTLSLSPGERATLSCRASQSVSNSYLAWYQQKPGQAPRLLIYGASSRAPGIPDRFSGSGSGTDFTLTISRLEPEDFAVYYCQQYDHSAGWTFGQGTKVEIK
B2: L1010H1000 (antibody, V domains shown)
VH: B1 VH
VL: not shown
B3: L1017H1000 (antibody, V domains shown)
VH: B1 VH
VL: not shown
B4: L1009H1000 (antibody, V domains shown)
VH: B1 VH
VL: not shown
B5: L1019H1000 (antibody, V domains shown)
VH: B1 VH
VL: B1 VL with Y50F, P57T
B6: L1011H1000 (antibody, V domains shown)
VH: B1 VH
VL: B1 VL with Y50F, D93G, H94S, A96P, G97P
B7: L1012H1029 (antibody, V domains shown)
VH: B1 VH with Q6E, H13Q, G24A, N58S, D103P, Y104W
VL: not shown
B8: L1016H1000 (antibody, V domains shown)
VH: B1 VH
VL: B1 VL with N31S, Y50F, P57T, A96P, G97P
B9: L1012H1007 (antibody, V domains shown)
VH: B1 VH with N58S
VL: not shown
B10: L1012H1020 (antibody, V domains shown)
VH: B1 VH with N58S, D103P, Y104W
VL: not shown
B11: L1013H1000 (antibody, V domains shown)
VH: B1 VH
VL: B1 VL with Y50F, P57T, A96P, G97P
B12: L1007H1000 (antibody, V domains shown)
VH: B1 VH
VL: not shown
B13: L1015H1000 (antibody, V domains shown)
VH: B1 VH
VL: B1 VL with N31S, Y50F, A96P, G97P
B14: L1012H1000 (antibody, V domains shown)
VH: B1 VH
VL: not shown
B15: L1012H1031 (antibody, V domains shown)
VH: B1 VH with Q6E, H13Q, G24A, N58S, M90T
VL: not shown
B16: L1008H1000 (antibody, V domains shown)
VH: B1 VH
VL: not shown
B17: L1020H1000 (antibody, V domains shown)
VH: B1 VH
VL: B1 VL with N31S, P57T

The assay has as its target T1, soluble human IL-4Rα (sIL-4Rα; PEPRO …). Description: ELISA, coated sIL-4Rα, culture supernatant. The protocol: Sample to be tested: For each antibody of the present invention, 10 μl and 2 μl of the culture supernatant of Expi293 cells expressing the antibody after transient transfection (the medium was Expi293 Expression Medium, Invitrogen, Catalog Number: A1435102; suspension culture was performed for 4 days at 100 rpm in a 8% CO2 incubator) were respectively added to 990 μl and 998 μl of PBS to prepare antibody samples to be tested of 1:100 and 1:500 dilutions.
100 μl of 100 μg/ml sIL-4Rα solution was added to 9.90 ml of PBS, mixed up and down, and then an antigen coating buffer of 1.0 μg/ml was obtained. The prepared antigen coating buffer was added to a 96-well ELISA plate (Corning) with a volume of 100 μl per well. The 96-well ELISA plate was incubated overnight in a refrigerator at 4° C. On the next day, the solution therein was discarded, and PBS containing 2% BSA was added to the 96-well ELISA plate row by row with a volume of 300 μl per well. The 96-well ELISA plate was incubated for 2 hours in a refrigerator at 4° C. Then the PBS containing 2% BSA was discarded and the plate was washed 3 times with PBST. Diluted antibodies to be tested were sequentially added to the corresponding wells, while the normal cell culture supernatants, as negative control samples, were added too. Three duplicate wells were made for each sample with a volume of 100 μl per well. The ELISA plate was wrapped with preservative film (or covered) and incubated for 1 h at 10° C. in a constant temperature incubator. Subsequently, the 96-well ELISA plate was taken out, and the solution therein was discarded. After washing with PBST for 3 times, TMB solution (Solarbio, Catalog Number: PR1200) was added to the 96-well ELISA plate row by row with a volume of 100 μl per well. The 96-well ELISA plate was placed at room temperature for 5 minutes, and 2 M H2SO4 solution was added in immediately to terminate the reaction. The 96-well ELISA plate was placed in flexstation 3 (Molecular Devices), the values of OD450 were read, and the data were collected, calculated and analyzed. Results were expressed relative to the affinity of control antibody 1.
As to B1, the “OD450/OD450 Control antibody 1” value is 1.56 ratio to control antibody 1.

Take B2: the “OD450/OD450 Control antibody 1” value is 1 ratio to control antibody 1.

Take B3: the “OD450/OD450 Control antibody 1” value was 0.49 ratio to control antibody 1.

With B4, the “OD450/OD450 Control antibody 1” value is 0.64 ratio to control antibody 1.

With B5, the “OD450/OD450 Control antibody 1” value was 1.79 ratio to control antibody 1.

With B6, the “OD450/OD450 Control antibody 1” value was 0.9 ratio to control antibody 1.

For the molecule B7, the “OD450/OD450 Control antibody 1” value is 0.11 ratio to control antibody 1.

Consider B8, for which the “OD450/OD450 Control antibody 1” value is 0.27 ratio to control antibody 1.

With B9, the “OD450/OD450 Control antibody 1” value is 0.4 ratio to control antibody 1.

As to B10, the “OD450/OD450 Control antibody 1” value was 0.11 ratio to control antibody 1.

As to B11, the “OD450/OD450 Control antibody 1” value was 0.24 ratio to control antibody 1.

In the case of B12, the “OD450/OD450 Control antibody 1” value is 0.8 ratio to control antibody 1.

Turning to B13, the “OD450/OD450 Control antibody 1” value was 0.67 ratio to control antibody 1.

For the molecule B14, the “OD450/OD450 Control antibody 1” value was 1.22 ratio to control antibody 1.

For the molecule B15, the “OD450/OD450 Control antibody 1” value is 0.16 ratio to control antibody 1.

As to B16, the “OD450/OD450 Control antibody 1” value was 0.9 ratio to control antibody 1.

For the molecule B17, the “OD450/OD450 Control antibody 1” value was 2.27 ratio to control antibody 1.
